{"source": "patent US9060935B2", "about": "“Pharmaceutical lipid compositions” (CAMURUS AB, priority 2005, dated 2015)", "origin": "cited, not measured here", "key": {"[1]": {"settings": "native GLP-1"}, "[2]": {"settings": "room temperature"}}, "data": [{"compound": "GLP-1: native glucoregulatory hormone, 37-amino acid peptide with a MW of 4.2 KDa", "values": [{"measurement": "plasma half-life", "setting": "[1]", "result": "below 2 minutes"}]}, {"compound": "CCCCCCCC/C=C\\CCCCCCCC(=O)OCC(O)CO", "note": "(centres unmarked) [GMO, glycerol monooleate]", "values": [{"measurement": "equilibrium water solubility", "setting": "[2]", "result": "~10^−7 M"}]}]}
